Data reported in patent publication US20220251236A1 (Boehringer Ingelheim, published 2022).

T1: EGF1+2
T1 construct: also called Hu DLL3 EGF1+2 on HEK293 cells
T1 membrane-anchored DLL3 subdomain construct: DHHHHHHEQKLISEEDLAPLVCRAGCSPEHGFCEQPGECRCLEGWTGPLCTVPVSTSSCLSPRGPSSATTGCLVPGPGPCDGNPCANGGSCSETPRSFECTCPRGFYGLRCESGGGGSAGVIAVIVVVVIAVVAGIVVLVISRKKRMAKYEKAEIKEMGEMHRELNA

T2: EGF6+MEMBRANE PROXIMAL PEPTIDE
T2 construct: also called Hu DLL3 EGF6+membrane proximal peptide on HEK293 cells
T2 membrane-anchored DLL3 subdomain construct: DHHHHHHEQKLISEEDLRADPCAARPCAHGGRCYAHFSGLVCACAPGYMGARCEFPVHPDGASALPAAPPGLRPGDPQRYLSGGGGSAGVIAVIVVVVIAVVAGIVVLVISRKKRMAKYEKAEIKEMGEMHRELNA

T3: EGF2+3
T3 construct: also called Hu DLL3 EGF2+3 on HEK293 cells
T3 membrane-anchored DLL3 subdomain construct: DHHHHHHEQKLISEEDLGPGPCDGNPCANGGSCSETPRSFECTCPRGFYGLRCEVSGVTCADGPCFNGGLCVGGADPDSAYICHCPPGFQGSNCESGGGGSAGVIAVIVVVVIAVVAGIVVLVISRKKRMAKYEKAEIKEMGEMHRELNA

T4: EGF5+6
T4 construct: also called Hu DLL3 EGF5+6 on HEK293 cells
T4 membrane-anchored DLL3 subdomain construct: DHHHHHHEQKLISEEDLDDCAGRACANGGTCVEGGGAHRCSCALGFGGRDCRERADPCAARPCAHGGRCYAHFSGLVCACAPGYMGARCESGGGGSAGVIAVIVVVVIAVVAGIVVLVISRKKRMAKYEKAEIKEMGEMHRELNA

T5: EGF4+5
T5 construct: also called Hu DLL3 EGF4+5 on HEK293 cells
T5 membrane-anchored DLL3 subdomain construct: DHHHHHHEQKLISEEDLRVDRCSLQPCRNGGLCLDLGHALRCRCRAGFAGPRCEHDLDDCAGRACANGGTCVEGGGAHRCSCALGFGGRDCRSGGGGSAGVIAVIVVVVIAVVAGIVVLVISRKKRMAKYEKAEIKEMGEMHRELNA

T6: Human DLL3-His (human, UniProt Q9NYJ7 27-492)
T6 construct: also called huDLL3-His; hu DLL3
T6 sequence: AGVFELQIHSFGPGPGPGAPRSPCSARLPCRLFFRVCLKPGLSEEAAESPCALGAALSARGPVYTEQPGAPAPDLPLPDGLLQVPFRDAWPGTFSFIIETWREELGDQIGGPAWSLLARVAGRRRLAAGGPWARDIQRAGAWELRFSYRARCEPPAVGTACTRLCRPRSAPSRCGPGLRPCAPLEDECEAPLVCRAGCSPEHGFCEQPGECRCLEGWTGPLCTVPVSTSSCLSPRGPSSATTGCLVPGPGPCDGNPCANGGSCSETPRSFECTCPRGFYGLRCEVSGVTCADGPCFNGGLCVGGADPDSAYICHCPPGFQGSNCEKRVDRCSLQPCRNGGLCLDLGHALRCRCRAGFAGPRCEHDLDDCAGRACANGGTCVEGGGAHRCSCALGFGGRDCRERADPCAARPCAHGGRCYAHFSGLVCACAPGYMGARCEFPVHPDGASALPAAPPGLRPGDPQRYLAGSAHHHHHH

T7: EGF3+4
T7 construct: also called Hu DLL3 EGF3+4 on HEK293 cells
T7 membrane-anchored DLL3 subdomain construct: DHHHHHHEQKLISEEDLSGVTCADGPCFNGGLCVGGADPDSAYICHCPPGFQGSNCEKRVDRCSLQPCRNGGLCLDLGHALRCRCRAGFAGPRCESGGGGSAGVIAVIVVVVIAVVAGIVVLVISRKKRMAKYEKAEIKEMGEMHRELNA

B1: DLL3#8/CD3#1 (bispecific antibody, human IgG1, kappa, lambda, L234A L235A)
chain 1: not shown
chain 2: EAVVTQEPSLTVSPGGTVTLTCRSSTGAVTTSNYANWVQEKPGQLPRGLIGGTNKRAPWVPARFSGSLLGGKAALTLSGAQPEDEAEYFCALWYSNLWVFGGGTKLTVLGQPKAAPSVTLFPPSSEELQANKATLVCLISDFYPGAVKVAWKADGSPVNTGVETTTPSKQSNNKYAASSYLSLTPEQWKSHRSYSCQVTHEGSTVEKTVAPAECSGGGGSEGKSSGSGSESKSTEGKSSGSGSESKSTGGGGSEVQLVESGGGLVQPGGSLKLSCAASGFTFNTYAMNWVRQAPGKGLEWVARIRSKYNNYATYYADSVKDRFTISRDDSKNTAYLQMNNLKTEDTAVYYCVRHGNFGNSYVSWFAYWGQGTLVTVSAASTKGPSVFPLAPSSKSTSGGTAALGCLVKDYFPEPVTVSWNSGALTSGVHTFPAVLQSSGLYSLSSVVTVPSSSLGTQTYICNVNHKPSNTKVDKRVEPKSCDKTHTCPPCPAPEAAGGPSVFLFPPKPKDTLMISRTPEVTCVVVDVSHEDPEVKFNWYVDGVEVHNAKTKPREEQYNSTYRVVSVLTVLHQDWLNGKEYKCKVSNKALPAPIEKTISKAKGQPREPQVYTLPPSREEMTKNQVSLSCAVKGFYPSDIAVEWESNGQPENNYKTTPPVLDSDGSFFLVSKLTVDKSRWQQGNVFSCSVMHEALHNRFTQKSLSLSPG
notes: Heterodimer of one DLL3 chain and one CD3 chain (scFab-Fc, knob-in-hole)
B2: DLL3#10/CD3#1 (bispecific antibody, human IgG1, kappa, lambda, L234A L235A)
chain 1: EIVLTQSPGTLSLSPGERATLSCRASQSLNSIFLAWYQQKPGQAPWLLIYGASSRATGIPDRFSGSGSGTDFTLTISRLEPEDFAVYFCQQYGGSMNTFGQGTKLEIKRTVAAPSVFIFPPSDEQLKSGTASVVCLLNNFYPREAKVQWKVDNALQSGNSQESVTEQDSKDSTYSLSSTLTLSKADYEKHKVYACEVTHQGLSSPVTKSFNRGECGGGGSEGKSSGSGSESKSTEGKSSGSGSESKSTGGGGSQVQLVQSGAEVKKPGASVKVSCKASGYTFTGYYMHWVRLAPGQGLEWMGWINPNSGGTIFAQRFQGRVTMTRDTSISTVYMDLNRLRSDDTAVYYCARDFGDTVGNAFDIWGQGTMVTVSSASTKGPSVFPLAPSSKSTSGGTAALGCLVKDYFPEPVTVSWNSGALTSGVHTFPAVLQSSGLYSLSSVVTVPSSSLGTQTYICNVNHKPSNTKVDKRVEPKSCDKTHTCPPCPAPEAAGGPSVFLFPPKPKDTLMISRTPEVTCVVVDVSHEDPEVKFNWYVDGVEVHNAKTKPREEQYNSTYRVVSVLTVLHQDWLNGKEYKCKVSNKALPAPIEKTISKAKGQPREPQVYTLPPSREEMTKNQVSLWCLVKGFYPSDIAVEWESNGQPENNYKTTPPVLDSDGSFFLYSKLTVDKSRWQQGNVFSCSVMHEALHNHYTQKSLSLSPG
chain 2: B1 chain 2
notes: as for B1
B3: DLL3#12/CD3#1 (bispecific antibody, human IgG1, kappa, lambda, L234A L235A)
chain 1: QVVLTQSPAIMSASPGEKVTITCSASSSVTYIHWFQQNPGTSPKLWIYRTSYLASGVPARFSGSGSGTSYSLTISRMEAEDAATYYCQQRSSYPRTFGGGTKLEIKRTVAAPSVFIFPPSDEQLKSGTASVVCLLNNFYPREAKVQWKVDNALQSGNSQESVTEQDSKDSTYSLSSTLTLSKADYEKHKVYACEVTHQGLSSPVTKSFNRGECGGGGSEGKSSGSGSESKSTEGKSSGSGSESKSTGGGGSQVQLQQPGAEFVQPGSSVKMSCKASGYAFSDYWITWVKQRPGQGLEWIGDIYPGSGSTKSSEKFKNRATLTADTSSSTAYIQFSSLTPEDSAVYYCVSLYYYGSYYLDTWGQGTTLTVSSASTKGPSVFPLAPSSKSTSGGTAALGCLVKDYFPEPVTVSWNSGALTSGVHTFPAVLQSSGLYSLSSVVTVPSSSLGTQTYICNVNHKPSNTKVDKRVEPKSCDKTHTCPPCPAPEAAGGPSVFLFPPKPKDTLMISRTPEVTCVVVDVSHEDPEVKFNWYVDGVEVHNAKTKPREEQYNSTYRVVSVLTVLHQDWLNGKEYKCKVSNKALPAPIEKTISKAKGQPREPQVYTLPPSREEMTKNQVSLWCLVKGFYPSDIAVEWESNGQPENNYKTTPPVLDSDGSFFLYSKLTVDKSRWQQGNVFSCSVMHEALHNHYTQKSLSLSPG
chain 2: B1 chain 2
notes: as for B1

Tests used:
EGF1+2 [1] = target: T1, EGF1+2; assay: flow cytometry on HEK293 cells expressing the DLL3 subdomain construct, PE anti-human secondary, control: secondary antibody only
In short: (§1)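 Binders tested on HEK293 cells displaying the DLL3 subdomain construct; bound molecules detected by flow cytometry using PE-conjugated anti-human secondary antibody. Negative control: cells with secondary antibody only.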

[2] = target: T2, EGF6+MEMBRANE PROXIMAL PEPTIDE; assay: as above
In short: as §1

EGF2+3 = target: T3, EGF2+3; assay: as above
In short: as §1

EGF5+6 = target: T4, EGF5+6; assay: as above
In short: as §1

Human CD3 E+G HuFc-6xHis = target: T8, Human CD3 E+G HuFc-6xHis (human); assay: SPR (ProteOn XPR36), HuCD3E_HuCD3G-Fc amine-coupled, bispecific as analyte, Example 4B
T8 construct: also called hu CD3εγ-Fc
T8 sequence (chain, as listed by the source limits assumed): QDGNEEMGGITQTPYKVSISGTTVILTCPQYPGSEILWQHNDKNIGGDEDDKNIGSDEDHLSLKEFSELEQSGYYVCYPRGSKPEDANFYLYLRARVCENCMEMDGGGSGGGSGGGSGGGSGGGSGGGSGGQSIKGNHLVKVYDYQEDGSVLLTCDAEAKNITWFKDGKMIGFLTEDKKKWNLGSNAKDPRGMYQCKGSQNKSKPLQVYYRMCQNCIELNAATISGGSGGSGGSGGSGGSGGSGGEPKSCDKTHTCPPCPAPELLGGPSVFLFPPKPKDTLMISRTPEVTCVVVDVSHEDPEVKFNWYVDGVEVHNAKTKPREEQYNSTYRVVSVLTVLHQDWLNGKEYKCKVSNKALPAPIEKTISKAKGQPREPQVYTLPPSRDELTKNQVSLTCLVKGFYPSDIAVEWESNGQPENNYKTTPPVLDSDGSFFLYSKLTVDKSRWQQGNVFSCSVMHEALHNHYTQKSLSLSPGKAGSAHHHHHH
In short: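 SPR kinetics with the bispecific constructs flowed as analyte over a directly amine-coupled (pH 4.5 acetate) human CD3εγ-Fc surface. Association runs 600 s and dissociation 1800 s, at 30 μl/min in PBS-T-EDTA.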

EGF4+5 [3] = target: T5, EGF4+5; assay: flow cytometry on HEK293 cells expressing the DLL3 subdomain construct, 1.6 nM binder, PE anti-human secondary, control: secondary antibody only
Method: (§2) DLL3/CD3 binding proteins were produced by transient transfection of CHO-E cells with the pTT5 vectors carrying the chain-encoding genes, as described in Example 2. […] Bound molecules were detected with PE-conjugated anti-human secondary antibody (Sigma-Aldrich, #P8047). As negative control, cells were incubated with secondary antibody only.
(§3) The samples were measured by flow-cytometry. […] The sequences of the epitope domains are listed in Example 5, Table 3.

[4] = target: T9, trypsin inhibitor from glycine max soybean (Glycine max (soybean)); assay: SPR (Biacore T200), trypsin inhibitor on CM5 chip, sample at 1 µM
T9 construct: also called Tryp
T9 sequence (P01070 25-205): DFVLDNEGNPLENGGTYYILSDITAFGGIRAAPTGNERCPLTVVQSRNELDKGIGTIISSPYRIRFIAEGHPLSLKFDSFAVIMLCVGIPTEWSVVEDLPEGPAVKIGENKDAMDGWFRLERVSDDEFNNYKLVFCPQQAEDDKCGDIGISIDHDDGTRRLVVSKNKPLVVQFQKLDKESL
From the text: To prepare the surface for the non-specific binding experiment, chicken egg white lysozyme and trypsin inhibitor from glycine max soybean were coupled manually to a series S CM5 chip with the surface density of 3000-5000 RU using the amine coupling kit according to the manufacture instructions.

Human DLL3-His = target: T6, Human DLL3-His; assay: SPR (ProteOn XPR36), bispecific captured on protein A/G, hu DLL3 as analyte, Example 4B
Method: The binding affinity of purified DLL3/CD3 bispecific constructs for recombinant human DLL3-ECD and Fc-fusion protein of human CD3 εγ subunits was determined by Surface Plasmon Resonance (SPR), using a ProteOn XPR36 instrument (Bio-Rad).
For binding kinetic determination to DLL3, anti-DLL3/CD3 molecules were captured individually on the protein A/G surface vertically for 200 sec at a flowrate of 30 μl/min. The baseline was stabilized by injecting PBS-T-EDTA for 60 sec at a flowrate of 30 μl/min horizontally. The analyte (hu DLL3) was injected horizontally over the captured antibody for 300 sec at a flowrate of 30 μl/min and a dissociation for 1800 sec.

EGF3+4 = target: T7, EGF3+4; assay: flow cytometry on HEK293 cells expressing the DLL3 subdomain construct, PE anti-human secondary, control: secondary antibody only
In short: as §1

EGF4+5 [5] = target: T5, EGF4+5; assay: as above
In short: as §1

EGF1+2 [6] = target: T1, EGF1+2; assay: flow cytometry on HEK293 cells expressing the DLL3 subdomain construct, 1.6 nM binder, PE anti-human secondary, control: secondary antibody only
Method: as §2, §3

Row | Binder | binding result (EGF1+2 [1]) | binding result [2] | binding result (EGF2+3) | binding result (EGF5+6) | Kd (Human CD3 E+G HuFc-6xHis) [nM] | binding result (EGF4+5 [3]) | Non-specific binding (RU) [4] [RU] | Kd (Human DLL3-His) [nM] | binding result (EGF3+4) | binding result (EGF4+5 [5]) | binding result (EGF1+2 [6])
1 | B1 | no binding (tested: 1.6 nM) | no binding (tested: 1.6 nM) | no binding (tested: 1.6 nM) | no binding (tested: 1.6 nM) | 2 | binds | 18 | – | – | – | –
2 | B2 | – | no binding (tested: 1.6 nM) | no binding (tested: 1.6 nM) | no binding (tested: 1.6 nM) | – | – | 12 | 0.141 | no binding (tested: 1.6 nM) | no binding (tested: 1.6 nM) | binds
3 | B3 | – | no binding (tested: 1.6 nM) | no binding (tested: 1.6 nM) | no binding (tested: 1.6 nM) | 2 | – | 9 | < 0.02 | no binding (tested: 1.6 nM) | no binding (tested: 1.6 nM) | binds
